In assay [1] the target is RSV-F of RSV subtype A strain A2 (1540) (respiratory syncytial virus subtype A, …, UniProt P03420 26-574). The assay is described as follows: cell-based or functional assay.
The next assay concerns the target T1, RSV-F.mmh (Respiratory Syncytial Virus).
T1 construct: also called recombinant RSV-F; soluble monomeric RSV-F
In words: SPR (Biacore), mAb captured via Fc, soluble RSV-F.mmh injected, 25 C. For orientation: SPR reads the build-up and loss of mass on a sensor chip optically.

B1: H1H3564P (antibody, V domains shown)
VH: QVQLVQSGAEVKKPGSSVKVSCKASGGTLSNNAFSWVRQAPGQGLEWLGGFNPIFDTANYAQKFQGRITITLDASTGTVYMELSSLRSEDTGVYYCAGTGAHFEFWGQGTLVTVSS
VL: DIQMTQSPSSLSASVGDRVTITCRTSQSISTYLNWYQQKPGKAPKFLIYAASTLQSGVPSRFSGSGSRTDFTLTISSLQPEDFATYYCQQSVSVPYTFGQGTKLEIK
B1: the “IC50 [pM] for RSV A2 Neutralization, Trial 1” value (from here on “IC50 [pM] … Trial 1”) in assay [1] was more than 10000 pM. Besides, in the assay with RSV-F.mmh, binding was characterised by a dissociation constant (Kd) of 25 nM; the koff (in general, a measure of how fast the partners let go of each other) came to 7.78e-05 s⁻¹; the kon (usually the rate constant with which the complex forms) was 3100 M⁻¹ s⁻¹; the t½ (usually the time needed for the level to fall by half in the phase considered) turned out to be 148 min.

B2: H1H3604P (antibody, V domains shown)
VH: QVQLVESGGGLVKPGGSLRLSCAASGFTFSDYYMTWIRQAPGRGLEWVSYISDTGSHLYYADSVRGRFTISRDNAKNSLYLQMNNLRAEDTAVYYCARDQDGEMELRFFDYWGQGTLVTVSS
VL: EIVLTQSPATLSLSPGERGTLSCRASQSINNYLAWYQQKPGQAPRLLIFDASNRATGIPARFSGSGSGTDFTLTISRIEPEDFAVYYCQQRTNWPLTFGGGTKVEIK
Take B2: the “IC50 [pM] … Trial 1” value in assay [1] was more than 10000 pM. For the same molecule, in the assay with RSV-F.mmh, the equilibrium dissociation constant (Kd) (as a rule, the free concentration of one partner at which half of the binding sites on the other are occupied at equilibrium, for simple one-to-one binding) was 30 nM; the koff worked out at 9.27e-05 s⁻¹; the kon worked out at 3100 M⁻¹ s⁻¹; the “t½” value was determined as 125 min.

B3: H1H3603P (antibody, V domains shown)
VH: QVQLQESGPGLVKPSETLSLTCTVSGGSISGYYWTWIRQPPGKGLEWIGYIYYSGATNYNPSLKSRVTISLDTSKNQFSLKLSSVTAADTAVYYCARDGNYDILTGYYNYHYYGMDVWGQGTTVTVSS
VL: DIQMTQSPSSLSASVGDRVTITCRASQDIGNYLAWFQQKPGKAPESLIYAASILQSGVPSKFSGSGSGTDFTLTISSLQPEDFATYYCQQYNTFPWTFGQGTKVEIK
Consider B3, for which the “IC50 [pM] … Trial 1” value in assay [1] is more than 10000 pM. In the assay with RSV-F.mmh, binding was put at a Kd of 41 nM, the koff came to 0.000123 s⁻¹, the kon turned out to be 3000 M⁻¹ s⁻¹ and the “t½” value is 94 min.

B4: H1H3591P (antibody, V domains shown)
VH: EVQLVESGGGLVQPGRSLRLSCAASGFTFDDYAMHWVRQTPGKGLEWISGISWSSGTIVYADSVKGRFTISRDNAKNSLYLQMNSLRGEDTALYHCAKDGYRWKSYSYGLDVWGQGTTVTVSS
VL: EIVMTQSPATLSLSPGERATLSCRPSQSVINNLAWYQQKPGQAPRLLIFGASSRATGIPARFSGSGSGTEFTLTISSLQSEDFALYYCQQYNNWPLTFGGGTKVEIK
With B4, in assay [1], the “IC50 [pM] for RSV A2 Neutralization, Trial 4” value (from here on “IC50 [pM] … Trial 4”) was 6 pM; the “IC50 [pM] for RSV A2 Neutralization, Trial 6” value (from here on “IC50 [pM] … Trial 6”) stood at 8 pM; the “IC50 [pM] for RSV A2 Neutralization, Trial 7” value is 6 pM. Also, in the assay with RSV-F.mmh, binding was characterised by a dissociation constant (Kd) of 34.2 nM, the koff was 0.00153 s⁻¹, the kon came to 44600 M⁻¹ s⁻¹ and the “t½” value came to 8 min.

B5: H1H3589P (antibody, V domains shown)
VH: EVQLVESGGGLVQPGGSLRLSCEASGFTFSTYWMSWVRQAPGKGLEWVANIKQDGSVKYFVDSVKGRFTVSRDNAKNSLYLQMNSLRAEDTALYHCARERHRGSYYGYYDGMDVWGQGTTVTVSS
VL: DIQMTQSPSSLSASVGDRVTITCRASQNIDIYLNWYQERPGKAPNLLIYAASSLQSGVPSRFSGSGSGTDFTLTISSLQPEDFATYYCQQSYNTPFTFGGGTKVEIK
Turning to B5, in assay [1], the “IC50 [pM] for RSV A2 Neutralization, Trial 5” value came out at 300 pM. Also, in the assay with RSV-F.mmh, the Kd worked out at 243 nM, the koff was 0.00914 s⁻¹, the kon was determined as 37700 M⁻¹ s⁻¹ and the “t½” value came out at 1 min.

B6: H1H3592P (antibody, V domains shown)
VH: EVQLVESGGDLVQPGRSLRLSCVASGFTFDDYAMHWVRQAPGKGLEWVSGVSWSGSTVGYADSVKGRFTVSRDNAQKSLYLQMNSLRAEDTALYYCVKDAYKWNYYYYGLDVWGQGTTVTVSS
VL: EIVMTQSPATLSVSPGERATLSCRASQTILSNLAWYLQKPGQAPRLLIYGASTRATGLPARFSGSGSGTEFTLTISSLQSEDFAVYYCQQYNNWPLTFGGGTKVEIK
As to B6, in assay [1], the “IC50 [pM] … Trial 4” value came out at 6 pM; the “IC50 [pM] … Trial 6” value is 5 pM; the “IC50 [pM] for RSV A2 Neutralization, Trial 7” value amounted to 4 pM. In the assay with RSV-F.mmh, the affinity, expressed as Kd, was 4.39 nM; the koff came out at 0.000466 s⁻¹; the kon came to 106000 M⁻¹ s⁻¹; the “t½” value was 25 min.

B7: H1H3592P2 (antibody, V domains shown)
VH: EVQLVESGGDLVQPGRSLRLSCVASGFTFDDYAMHWVRQAPGKGLEWVSGVSWSGSTVGYADSVKGRFTVSRDNAQKSLYLQMNSLRAEDTALYYCVKDAYKYNYYYYGLDVWGQGTTVTVSS
VL: EIVMTQSPATLSVSPGERATLSCRASQTILSNLAWYLQKPGQAPRLLIYGASTRATGLPARFSGSGSGTEFTLTISSLQSEDFAVYYCQQYNNWPLTFGGGTKVEIK
In the case of B7, in the assay with RSV-F.mmh, the Kd turned out to be 14.7 nM, the koff was 0.00146 s⁻¹, the kon worked out at 99300 M⁻¹ s⁻¹ and the “t½” value amounted to 8 min.

B8: H1H3565P (antibody, V domains shown)
VH: QVQLVESGGGVVQPGRSLRLSCAASGFTFNSYGMHWVRQAPGKGLEWVTFIWSDGSNKYYLDSVKGRFTISRDNSKNTLYLQMNSLRAEDTAVYYCARSGLASYYYYGMDVWGQGTTVTVSS
VL: DIQMTQSPSSLSASVGDRVTITCRASQGIRNDLGWYQQKPGKAPKRLIYGASSLQSGVPSRFSGSGSGTEFTLTISSLQPEDFATYSCLQHNSYPWTFGQGTKVEIK
Take B8: the “IC50 [pM] … Trial 1” value in assay [1] was more than 10000 pM. Also, in the assay with RSV-F.mmh, the Kd was 3.01 nM, the koff was 5.8e-05 s⁻¹, the kon was determined as 19300 M⁻¹ s⁻¹ and the “t½” value was found to be 199 min.

B9: H1H3566P (antibody, V domains shown)
VH: QVQLVESGGGVVQPGRSLRLSCAASGFTFSSYGMHWVRQAPGKGLEWVVFLWYDGSNKHYADSVKGRFTISRDNSKNTLYLQMNSLRAEDTAVYYCARSGLASYYYYSMDVWGQGTTVTVSS
VL: DIQMTQSPSSLSASVGDRVTITCRASQGIRNDLAWYQQKPGKAPKRLIYGASSLHSGVPSRFSGSGSGTEFTLTISSLQPEDFATYSCLQHNSYPWTFGQGTKVEIK
Consider B9, for which, in assay [1], the “IC50 [pM] … Trial 1” value was more than 10000 pM. Also, in the assay with RSV-F.mmh, the dissociation constant (Kd) came to 2.06 nM, the koff is 4.2e-05 s⁻¹, the kon turned out to be 20400 M⁻¹ s⁻¹ and the “t½” value amounted to 275 min.

B10: H1H3581P (antibody, V domains shown)
VH: EVQLVESGGGLVHPGGSLRLSCEASGFTLSSHVMSWVRQVPGKGLEWVSRISGPGGSTKYADSVQGRFTTSRDNSKNTLYLQMNSLIAEDSAAYYCAKGGGYSGYDWDFYYGMDVWGQGTTVTVSS
VL: DIQMTQSPSSVSASVGDRVTITCRASQGISSWLAWYQQKPGKAPKLLIYAASSLQSGVPSRFSGSGSGTDFTLTISSLQPEDFATYYCQQTNSFPLTFGGGTKVDIK
Take B10: the “IC50 [pM] … Trial 1” value in assay [1] is more than 10000 pM. In addition, the binding result with RSV-F.mmh is reported as “no binding”.

B11: H1H3605P (antibody, V domains shown)
VH: QVQLQESGPGLVKPSETLSLTCTVSGGFISNYYWSWIRQPPGKGLEWIGYIYYSGSTKYNPSLKSRVTISVDTSKNQFSLKLSSVSAADTAVYYCARDGVVAAAGPPYHYHYGLDVWGQGTTVTVSS
VL: DIVMTQSPDSLAVSLGERATINCKSSQNLLYTSSNKNSLAWYQQKPGQPPELLIYWASTRESGVPDRFSGSGSGTDFILTISSLQAEDVAVYYCQQYYSSPWTFGQGTKVEIK
In the case of B11, the “IC50 [pM] … Trial 1” value in assay [1] is more than 10000 pM. In the assay with RSV-F.mmh, the Kd worked out at 59 nM, the koff came to 0.000168 s⁻¹, the on-rate (kon) came to 2800 M⁻¹ s⁻¹ and the “t½” value is 69 min.

B12: H1H3583P (antibody, V domains shown)
VH: QVQLVQSGAEVKKSGSSVKVSCKASGGTFSSYAISWVRQAPGQGLEWMGGIIPIFGTGNYAQKFQGRVTITTDESTSTAYMELSSLRSEDTAVYYCARDSSSSPRYYGMDVWGHGTTVTVSS
VL: EIVLTQSPATLSLSPGERATLSCRASQSVTSYLAWYQQKPGQAPRLLIYDVSKRATGIPARFSGSGSGTDFTLTISSLEPEDFATYYCQQRSNWPPTFGQGTRLEIK
Take B12: the “IC50 [pM] for RSV A2 Neutralization, Trial 5” value in assay [1] was found to be 50 pM. Further, in the assay with RSV-F.mmh, the Kd was 34.4 nM, the koff was determined as 0.00308 s⁻¹, the on-rate (kon) came out at 89400 M⁻¹ s⁻¹ and the “t½” value came out at 4 min.

B13: H1H3597P (antibody, V domains shown)
VH: EVQLVESGGGLVQPGGSLRLSCGASGFTFRDFDMNWVRQAPGRGLEWVSGIGGSGGNTYYADSVKGRFTISRDNSKNTLFLQMSSLRAEDTAVYYCVKDPYGDYRNYYGMDVWGQGTTVTVSS
VL: DIVMTQSPLSLPVTPGEPASISCRSSQSLLHSNGYNYLDWYLQKPGQSPQLLIYLGSNRASGVPDRFRGSGSDKDFTLKISRVGAEDVGVYYCMQALQTITFGQGTRLEIK
In the case of B13, the “IC50 [pM] … Trial 1” value in assay [1] is more than 10000 pM. For the same molecule, the binding result with RSV-F.mmh is on record as “no binding”.

B14: H1H3598P (antibody, V domains shown)
VH: EVQLVESGGGLGQPGGSLRLSCGASGFMFRNYAMSWVRQAPGKGLEWVSTILDSGDNTYYADSVKGRFTISRDNSKNTLYLQMNSLRAEDTAVYYCAKDPYGDYRDYYGMDVWGQGTTVTVSS
VL: DIVMTQSPLSLPVTPGEPASISCRSSQSLLHSNGYNYLDWYLQKPGQSPQLLIYLGSNRASGVPDRFRGSGSGKDFTLKISRVEAEDVGLYYCMQALQTITFGQGTRLEIK
Turning to B14, the “IC50 [pM] … Trial 1” value in assay [1] was more than 10000 pM. The binding result with RSV-F.mmh is “no binding”.

B15: H1H3567P (antibody, V domains shown)
VH: QVQLVQSGAEVKKPGASVKVSCKASGYTLTGYYLHWVRQAPGQGLEWMGWINPTSGGTNYAQKFQGRVTMTRDTSISAAFMELSRLRSDDTAVYHCAREFWPHGMDVWGQGTTVTVSS
VL: AIQMTQSPSSLSASVGDRVTITCRASQAIRNDLGWYQQKPGKAPKLLIYASSSLQSGVPSRFSGSGSGTDFTLTISSLQPEDFATYYCLADYKYTWTFGQGTKVEIK
On to B15, for which, in assay [1], the “IC50 [pM] … Trial 4” value was determined as 257 pM and the “IC50 [pM] … Trial 6” value came to 390 pM. In addition, in the assay with RSV-F.mmh, the Kd came out at 43.4 nM, the koff was 0.00263 s⁻¹, the kon was found to be 60500 M⁻¹ s⁻¹ and the “t½” value is 4 min.

The record behind these values is US20140271653A1 (Regeneron, published 2014).
